# Reference: a protein production outcome set (Wang et al. 2014)
# Assay: label from the status in PepcDB records
row,Sequence,protein production
1,MSTFQQPDPRDRPARLTVGVVGAGRVGPALAASLQLAGHRPVAVSGVSDTSVRRAAAMLPDVPLVTPAQVLERADLVLLTVPDDALPGLVEGLAETGAVRPGQLLVHTSGRYGTKVLDPARSAGALPLALHPAMTFTGTAVDVQRLAGCSFGVTAPDELRLAAEALVIEMGGEPEWIAEENRPLYHAALALGANHLVTLVAESMELLRTAGVEAPDHMLGPLLGAALDNALRSGDGALTGPVARGDAGTVAAHVAELRKHAPGTVPGYLAMARATADRALAHGLLKPELAEDLLGVLANGTEGDAG,failed
2,MSTIEERTPGAVATEPVGHEGARVSINEKNVWSLGAGPAAFALLAMIVLMIASGVFFAQSINTLENDGGGTLAVTGLIASIVVFTVALVVTITSVKVVSPGHTLTVQFFGRYIGTLRRTGLSFVPPLSVTKKVSVRVRNFETNEAKVNDYNGNPINIAAIIVWQVADTAQASFSVEDFEEFLHQQAESALRHVATQHPYDSPVDGRVSLRGATDEVSEELADEVAQRAAVAGLEIVEARISSLSYAPEIAQAMLQRQQASAIVDAREKIVEGAVTMVETALDQLEQREIVDLDPERRAAMVSNLLVVLCSDTNAQPIVNAGSLYQ,failed
3,MSTKLYYIYDPMCSWCWGYRPVWDLLQQHLPKSIDVEYVAGGLAPDSDSAMPIDQQQMIQNHWRTIEQKLGTKFNYDFWRENTARRSTYNACRAAIAAHKQSCQKAMIDAIQQAYYLRALNPSDVDVLVSVAKELSEQTSPTLDVAQFIVDINSSETNKELAKQVTLARELTQQGFPSLVLDVDGVIQQIPLDYSDYKTTLAYIIKKTS,failed
4,MSTKTMKEKAVELLQKCEVVTLASVNKEGYPRPVPMSKIAAEGISTIWMSTGADSLKTIDFLSNPKAGLCFQEKGDSVALMGEVEVVTDEKLKQELWQDWFIEHFPGGPTDPGYVLLKFTANHATYWIEGTFIHKKLD,not failed
5,MSTLQTPGATLYSFRRCPYAMRARLALRYAGVPMRIVEVSLKAKPAEMLALSAKGTVPVLALEDRVIDESLEIMHWALAQHDPEDWRLTADPTAQAQMAALIAENDQVFKVHLNRYKYAERYPEAPMEHYRAQGEAFLARLDSLLQQRRYLLAEHPSLADMALLPFVRQFAHVDREWFAQTPYRSLQEWLQERLASELFLAVMAKQ,failed
6,MSTPTAADRAKALERKNEGNVFVKEKHFLKAIEKYTEAIDLDSTQSIYFSNRAFAHFKVDNFQSALNDCDEAIKLDPKNIKAYHRRALSCMALLEFKKARKDLNVLLKAKPNDPAATKALLTCDRFIREERFRKAIGGAENEAKISLCQTLNLSSFDANADLANYEGPKLEFEQLYDDKNAFKGAKIKNMSQEFISKMVNDLFLKGKYLPKKYVAAIISHADTLFRQEPSMVELENNSTPDVKISVCGDTHGQFYDVLNLFRKFGKVGPKHTYLFNGDFVDRGSWSCEVALLFYCLKILHPNNFFLNRGNHESDNMNKIYGFEDECKYKYSQRIFNMFAQSFESLPLATLINNDYLVMHGGLPSDPSATLSDFKNIDRFAQPPRDGAFMELLWADPQEANGMGPSQRGLGHAFGPDITDRFLRNNKLRKIFRSHELRMGGVQFEQKGKLMTVFSAPNYCDSQGNLGGVIHVVPGHGILQAGRNDDQNLIIETFEAVEHPDIKPMAYSNGGFGL,not failed
7,MSTQDERQINTEYAVSLLEQLKLFYEQQLFTDIVLIVEGTEFPCHKMVLATCSSYFRAMFMSGLSESKQTHVHLRNVDAATLQIIITYAYTGNLAMNDSTVEQLYETACFLQVEDVLQRCREYLIKKINAENCVRLLSFADLFSCEELKQSAKRMVEHKFTAVYHQVAFMQLSHDLLIDIFSSDNLNVEKEETVREAAMLWLEYNTESRSQYLSSVLSQIRIDALSEVTQRAWFQGLPPNDKSVVVQGLYKSMPKFFKPRLGMTKEEMMIFIEASSENPCSLYSSVCYSPQAEKVYKLCSPPADLHKVGTVVTPDNDIYIAGGQVPLEKHKNKSQ,failed
8,MSTQSEAILEENLLKQLVSLGYEKVLIRDEAELLANLKAQLERHNKITLDDMEFSRILNHLNKGNVFEKAKILRDKFALTREDGTTKYIEFLDTERWCQNLFQVTHQVTIEGSYKNRYDVTILINGLPLVQIELKRRGLELKEAFNQINRYQRHSYGANSALFHYVQIFVISNGVNTKYYANNRNQSFKQTFFWADKENKNITNLNEFTDLFLEPCHISKMICKYVVLAEATKTLMILRPYQYHATEAIIDRVVNTNKNGYIWHTTGSGKTLTSFKTAQILMKLPNVHKVVFVVDRKDLDYQTTKEFNSFSQGSVDGTDNTASLVRQFSDDTRLIVTTIQKLNTAINKQRYLEKMKNLRDKRIVFIFDECHRSQFGDTHRNITKFFNNYQMIGFTGTPIFADNATGNKFGKRTTKELFDECLHKYVITDAIADENVLKFSVEYIGRYKEREGSQNNLDIEVEDIDTKELLESPERLEKIVDYIIAHHDRKTHSKEFTAMMCVSSVDVLTKYYELFRSKQHGLKIATIFSYSTNEDDKDANGLDSLEESDGAHVDEEHINMHSRDKLEEYIAHYNTMFGTNFTTKDSQSFYNYYNDISKRVKNQEVDILLVVNMFLTGFDSKTLNTLYVDKNLKYHGLIQAFSRTNRILNEKKSQGNILCFRNLKKATDAAIALFSNKNAKEIILMKSYEEYVEKFIEALKKLKEIAPTIDSVDSLYDEESKLEFIKAFRELMRIQNILGSFADFSFADLGIAEQEFEEYKSKYLDIHDTIKREGKEKVSILEDVDFELELIHKDEINVTYILKLLAQLKDASEQEHQTQRQNIINIINGNAQLRSKRELIERFIDAHLMSLEDIDMVDGAFEKFWNEEKLKAFDALCEEENLNKEKVKKVVDTYLYDERPPLSDDIANTLNIKPKLLERRKVVPRVLDKIMTFVDRFYT,failed
9,MSTRSMSAPANATVADVAAGDAIRSLDPSIRAVWAIKMAAFSMFLFLPALFYDLTHLFSPDSWLPFGVLSGTVLVGGVLYCVAWPRLRYRAWGFVLRPEELYMEHGVLQHVRTIVPLRRIQHVDVSQDLIEREFALGRLVVHTAGSRSSDVVIPGLPLSEAETIRDKIKRFILEDPLTEEPV,failed
10,MSTTALVGTGHRPTIVLVGHGMVGQRFLEALAERGLTATHRVVVLCEEPRPAYDRVQLTSYFSGTTPDELSMTDAEFITEHGIDLRLGDPAETVDREARTVTARSGLVIAYDTLVLATGSYPFVPPVPGKDAEGCFVYRTIEDLLAIEAYAKSRATTGAVVGGGLLGLEAAGALKGLGLTSHIVEFAPRLMPVQVDAGGGAALLRTIEDMGLTVHTGTGTQEIVTGDDGAVTGMKLSDGSELATDLVVFSAGVRPRDQLARDCGLPVGERGGIAVDAQCRTEDPHVFAIGECALAADGRVYGLVAPGYEMAETAAATIASADSSFTGADLSTKLKLLGVDVASFGDAHGATAGCLDVVYADSRSGTYKKLVIGRDGELLGGILVGDADAYGTLRALTGSVPPVSPEQLVLPAGGGGGVALGPSALPDSAVICSCHNVTKGAIRGAVTEHSCTTLPEVKKCTKAGTGCGSCVKVLGQLVNDELTASGVEVDHGLCGCFTQTREELYEIVLALRITSYRSLLDRYGREGARGGDGCEVCKPTVGSIIASLAPTIGANGYVLDGEQSALQDTNDHFLANLQKNGSYSIVPRIPGGEITPEKLIVIGEVARDFGLYTKITGGQRIDLFGARVEQLPLIWTRLVDAGFESGHAYGKSLRTVKSCVGQSWCRYGVQDSVRMAIDLELRYRGLRSPHKLKSAVSGCARECAEAQSKDFGIIATANGWNLYVGGNGGATPRHADLLAQDLSDAELVRLIDRFLMFYIRTADRLERTSVWLERIPGGLDHIRDVVVHDSLGICEELESLMTAHVANYRDEWTETINDPEKLARFVSFVNAPDTPDPVVGFVPERDQIKPDLPLLTIGHRPLEGSAQR,failed
11,MSTTGDSAPQISGTAESAKECADWQALLERIPYAQHLGLEVQRGDVGVLVHLPCREALIGNFMLPALHGGVLGALIELTARVAAQSQDAETRCPRILDSHINYLRSAKARSTFARADIIRQGRRTSLVQVTCWQGDDKKPIATGQVQLLLPTMAAQQEDRHGH,failed
12,MSTTQLKVKEINEELDSRPAVPPINDIRSYIAALEAHGVLHRVKAEVDWKFELAHISKVNEEQKGPALLYENVKGNTIPVFTSAFTTPERIAICLEQDPSLSMCQLSRKWMELTTKQMIKPTFVKNPPVMENIIEEKDVDLENFPAPWFYPDDGGRFFGTSGYLVTQDPDTGWTNLGTYRSQILGKNILGSQIISGKHGDFHMKKYQERGEKMPVAYVVGGDPILFLASSTLVSAQTDEYDVGGALRGRPIEVFKSDLTGLTLPANAEIIVEGWMDPEELMEEGPFGEYTGYYSGNKMKDYPKPVIRVKRIIHRNKPIFWSTTVGKPINDTHMVQSINRTATLWHDLETMKVPGIQSVYFPAAATGRFWVVASVKQMYPGHSNHVADAINGSTTGHYGVKGIIIVDHDIAADDMDRVWWALAVRFDPKRSTQIITRGRSTPLDPGLPIEARDVVSRIILDATIPYEWKNKPNEIFMDRTVLQKVSDRWNEYGFTGASPVAEMIPRLTRPEVKKK,failed
13,MSTTYYWLCLLASIVFEVAGTSVMKLSQETWPLLGMGCMYLLLGLSYFFLARAVVKLPVGVAYAFWEGLGLTLITIVSVTLLDERLDAMRLAALGMVLAGTLLVHHGTAHGRDDEEAEAASGGEGRI,failed
14,MSTYLIGDIHGCLDELLALLAQVNFDPQQDTLWLTGDLVARGPASLDVLRYVRSLGPAVRMVLGNHDLHLLAVYAGISRNKPKDRITPLLDAPDADELINWLRRQPVLQVDDQLKLIMAHAGITPQWDIETAKMCAREVEAVLSSDSYPLFLDAMYGDMPNNWSPELTGLARLRFSTNALTRMRFCFPNGQLDMICKDTPENAPAPLKPWFDLPRLVDPEYSIIFGHWASLEGKGVPEGIYGLDTGCCWGGDLTLLRWDDKRYFTQRAFKAEAEINNNNGFAAGEAVQH,failed
15,MSTYYNDHLAAAEKDISSSNFCNLVDASVMLYDEEHRDLLPKKVNSRCQAKTKKQEKESDKRFFDLFPKKRRTSVVTVRNPEQNQQNLHRVSTSSSLLDLNTIPGDSSDPRNELQGLLSSSSSSFLGDYERKTPQNASSSSTLLAEYNTEMANPPNPNSETSLKRKHSDSEPKKAKTPYSWKGREAPEWLVKMMGTMQGSEGPRLIYEKTLTETDVKPVQSRLLMPFNTLIRNDFLTPVELRILLELEDDTDGVGATLVDPWEVKWGVILKKREMKKYSGKGSLNYAIICGWNDIVEANVLEKDDDISIWSFRRGRNGILSFALVLPPPPDMA,failed
16,MSVAFVPDWLRGKAEVNQETIQRLLEENDQLIRCIVEYQNKGRGNECVQYQHVLHRNLIYLATIADASPTSTSKAME,failed
17,MSVAGLKKQFHKASQLFSEKISGAEGTKLDDEFLDMERKIDVTNKVVAEILSKTTEYLQPNPAYRAKLGMLNTVSKIRGQVKTTGYPQTEGLLGDCMLKYGKELGEDSTFGNALIEVGESMKLMAEVKDSLDINVKQTFIDPLQLLQDKDLKEIGHHLKKLEGRRLDYDYKKKRVGKIPDEEVRQAVEKFEESKELAERSMFNFLENDVEQVSQLAVFIEAALDYHRQSTEILQELQSKLQMRISAASSVPRREYKPRPVKRSSSELNGVSTTSVVKTTGSNIPMDQPCCRGLYDFEPENQGELGFKEGDIITLTNQIDENWYEGMIHGESGFFPINYVEVIVPLPQ,failed
18,MSVAILAQEKLGDCVLLTPLVRNLRQAFPDLEIHLITFSRASANFFMNDPQVTAVHLVKKQPRRYFREVLSRKFDLLFNTKDHPSTWFLLQSALIRARFKVGHNNPFHEGLYDRLLDTEFHAHMAVKNCALLPLLGVTADTEACRPSLEHHHHHH,not failed
19,MSVELEESQVCEACGCAGEIGFIIKEGDEVADVTIFAETKDALESELAKYIELAKSVCAGVEYNVSELTEESKELTARFKFEVSAEKLIFELKTRSLARLEHHHHHH,not failed
